The series can be described thus: yeast display, Sf9 membrane polyspecificity reagent, FACS + sequencing; frameworks hold sequencing errors. The essentials: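 A synthetic nanobody library was expressed on Saccharomyces cerevisiae BJ5465 by galactose induction for 36–48 hours. The library was stained for 1 hour at 4 °C with 10% biotinylated, detergent-solubilized Sf9 membrane reagent and enriched with streptavidin microbeads before FACS. Low and high (top ~1%) gates were set on anti-HA fluorescence for expression and streptavidin fluorescence for reagent binding, and each polyreactivity label reflects the gate of origin.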
Take “QVQLVESGGGLVQAGGSLRLSCAASGRTIGGYVMGWYRQAPGTERELVAVITISGGSTYYADSVKGRFTISRDNAKNTVYLQMNSLKPEDTAVYYCAARTYYGYDYWGQGTQVTVSS”: the “polyreactivity (PSR sort gate)” value is “high polyreactivity”.

As for “QVQLVESGGGLVQAGGSLRLSCAASGRTIGSYAMGWYRQAPGKERELVAAITSSCGSTYYADSVKGRFTISRDNAKNTVYLQMNSLKPEDTAVYDCAALWGRRGWWGVSWSFSTGFDYWGQGTQVTVSS”, the “polyreactivity (PSR sort gate)” value is reported as “high polyreactivity”.

As for “QVQLVESGGGLVQAGGSLRLSCAASGRTIGVYALGWSRQAPGKERELVAALTTSGDSTYYADSVKGRFTISRDNAKNTDYLQMNSLKPEDTAVYYCAARSYRKPRHVSVTYYYWGQGTQVTVSS”, the “polyreactivity (PSR sort gate)” value is “low polyreactivity”.

For “QVQLVESGGGLVQAGGSLRLSCAASGRTIGYNDLGWYRQAPGKERELVAAIDWSGGSTYYADSVKGRFTISRDNAKNTVYLQMNSLKPEDTAVYDCAALVWRDEYDYLGQGTQVTVSS”, the “polyreactivity (PSR sort gate)” value is recorded as “low polyreactivity”.

On to “QVQLVESGGGLVQAGGSLRLSCAASGRTIKYTAMGWYRQAPGKERDLVAAITYSGGSTYYADSVKGRFTISRDNAKNTVYLQMNSLKPEDTAVYYCGQGTQVTVSS”, for which the “polyreactivity (PSR sort gate)” value is recorded as “low polyreactivity”.

For the sequence “QVQLVESGGGLVQAGGSLRLSCAASGRTIPFNAMGWYRQAPGKERELVAAISSSAGRTYYADSVKGRFTISRDNAKNTVYLQMNSLKPEDTAVYYCAARLYGRYRYDYWGHGTQVTVSS”, the “polyreactivity (PSR sort gate)” value was “low polyreactivity”.

In the case of “QVQLVESGGGLVQAGGSLRLSCAASGRTIPNVMGWYRQAPGKERELVAAISSSVGSTSYADSVKGRFTISRDNAKNTVYLQMNSLKPEDTAVYYCAARYYYRDWVGIISTYYYWGQGTQVTVSS”, the “polyreactivity (PSR sort gate)” value is listed as “high polyreactivity”.

With “QVQLVESGGGLVQAGGSLRLSCAASGRTIPTYDMGWYRQAPGKERELVASIRSGGRTKYADSVKGRFTISRVNAKNTVYLQMNSLKPEDTAVYYCAADRRAYYYSFDYWGQGTQVTVSS”, the “polyreactivity (PSR sort gate)” value was “low polyreactivity”.

With “QVQLVESGGGLVQAGGSLRLSCAASGRTIRGYAMGWYRQAPGKEREFVASITWNSVSTSYADSVKGRFTISRDNAKNTVYLQMNSLKPEDTAVYYCNRRTGSYGRTPVGKGEYYYWGQGTQVTVSS”, the “polyreactivity (PSR sort gate)” value is “high polyreactivity”.

With “QVQLVESGGGLVQAGGSLRLSCAASGRTIRHNAMGWYRQAPGKERELVAAISRSGGSTYYADSVKGRFTISRDYAKNTVYLQMNSLKPEDTAVYYCAAGYHIIYTPEYYYWGQGTQVTVSS”, the “polyreactivity (PSR sort gate)” value is reported as “high polyreactivity”.

Turning to “QVQLVESGGGLVQAGGSLRLSCAASGRTIRNNAMGWYRQAPGKERDLVASITRSGGSTYYADSVKGRFTISRDNANNSVSLQLNSLKPEDTSVFYCNRVAHSLTYPTDHEFNYWGQGTQVTVSS”, the “polyreactivity (PSR sort gate)” value is listed as “high polyreactivity”.

For the sequence “QVQLVESGGGLVQAGGSLRLSCAASGRTIRTYTMGWYRQAAGKERELVAAISWSGSSTYYADSVKGRFTISRDNAKNTVYLQMNSLKPEDTAVYYCAARGLYDYGYWGQGTQVTVSS”, the “polyreactivity (PSR sort gate)” value is “high polyreactivity”.

“QVQLVESGGGLVQAGGSLRLSCAASGRTIRWYTMGWYRQAPGKERELVAGISSSGGSTYYAESVKGRYTISRDYAKNTVYLQMNSLKPEDTAVYYCAASAAYYGFYKSVSYEYWGQGTQLTVSS”: the “polyreactivity (PSR sort gate)” value was “low polyreactivity”.

Take “QVQLVESGGGLVQAGGSLRLSCAASGRTIWYYAMGWYRQAPGKESELVAAISWSGGTTFYADSVKGRFTISRDNAKYTVYLQMNSLKPEDTAVYYCAKKCIGYQEWIHSTRRYDYWGQGTQVTVSS”: the “polyreactivity (PSR sort gate)” value is “low polyreactivity”.

In the case of “QVQLVESGGGLVQAGGSLRLSCAASGRTIYGYAMGWYRQAPGKERELVAAISWTGGRTYYADSVKGRFTISRDNAKNTVYLQMNSLKPEDTAVYYCNARRRGDSGDGYIYGYWGQGTQVNVSS”, the “polyreactivity (PSR sort gate)” value is “high polyreactivity”.

Regarding “QVQLVESGGGLVQAGGSLRLSCAASGRTIYRYAMGWYRQAPGKERELVAAITRRGVNTYYADSVKGRFTISRDNAKNTVYLQMNSLKPEDTAVYYCAAENGALVTYGYWGQGTQVTVSS”, the “polyreactivity (PSR sort gate)” value was “high polyreactivity”.

With “QVQLVESGGGLVQAGGSLRLSCAASGRTIYYYARGWYRQAPGKERELVAAITLRGGSTYYADSVKGRFTISRDNAKKTVYLQMNSLKPEDTAVYYCAKESTVRRYDYWGQGTQVTVSS”, the “polyreactivity (PSR sort gate)” value was “low polyreactivity”.

In the case of “QVQLVESGGGLVQAGGSLRLSCAASGRTLAFNAMGWSRQAPGKERELGAGIRNGTSTNYADSVKGRFTISRVNAKNTVYLQMNCLKPEDTADYYCNVPYYLQSYLSGYDYWGQGTQVSVSS”, the “polyreactivity (PSR sort gate)” value is given as “low polyreactivity”.

For “QVQLVESGGGLVQAGGSLRLSCAASGRTLARNAMGWYRQAPGKERELVARIRDSGGSKYYADSVKGRFTISRDNAKNTVYLQMNSLKPEDTAVYYCAARSRLVYSYYTYWGQGTQVTVSS”, the “polyreactivity (PSR sort gate)” value is recorded as “high polyreactivity”.

Take “QVQLVESGGGLVQAGGSLRLSCAASGRTLAYYVMGWYRQAPGKERELVAAISGRGGRTNYADSVKGRFTISRDNAKNTVYLQMNSLKPEDTAVYYCAAYRTGYNVDYYYWGQGTQVTVSS”: the “polyreactivity (PSR sort gate)” value is given as “high polyreactivity”.

“QVQLVESGGGLVQAGGSLRLSCAASGRTLDVNAMGWYRQAPGKERELVAAISYSGGITYYADSVKGRFTISRDNAKNTVYLQMNSLKPEDTAVYYCAVVGGYPSYTVDYWGQGTQVTVSS”: the “polyreactivity (PSR sort gate)” value is “low polyreactivity”.

In the case of “QVQLVESGGGLVQAGGSLRLSCAASGRTLFFYAMGLYRQAPGKERELVAAISSSGTRTYYADSVKGRFTISRDNAKNTVYLQMNSLIPEDTAVYYCNKVKYYRTGGMEYWGQGTQVTVSS”, the “polyreactivity (PSR sort gate)” value was “high polyreactivity”.

Consider “QVQLVESGGGLVQAGGSLRLSCAASGRTLGDYGMGWYRQAPGKETQLVAVITSGGSPYYADSVKGRFTISRDNAKNTVYLQMNSLKPEDNAVYFCNARHPYYTVQTGGYDYWGQGTQVTVSS”, for which the “polyreactivity (PSR sort gate)” value is “low polyreactivity”.

For the sequence “QVQLVESGGGLVQAGGSLRLSCAASGRTLGGYAMVWYRQAPGTERELVAAITRRGGSTYYADSVKGRFTISRDNAKNTVYLQMYSLKQEDTAVYYCAARYLYSDEYWDKFYYWGQGTQVTVSS”, the “polyreactivity (PSR sort gate)” value was “high polyreactivity”.

On to “QVQLVESGGGLVQAGGSLRLSCAASGRTLGGYTMGWYRQAPGKERELVAAITTGGSTNYADSVKGRFTISRDNAKNTVYLQMKSLIPEDTAVYYCATDLVFDKRYWYDFWGEGTQVTVSS”, for which the “polyreactivity (PSR sort gate)” value is listed as “low polyreactivity”.

As for “QVQLVESGGGLVQAGGSLRLSCAASGRTLGPNAMGWYRQAPGKERELVAGITGRGGITYYTDSEKGRFTISRDNAKNTVYLQMNSLKPEDTAVYYCAARRYRFAGDYRMYYWGQGTQVTVSS”, the “polyreactivity (PSR sort gate)” value is on record as “high polyreactivity”.

Regarding “QVQLVESGGGLVQAGGSLRLSCAASGRTLGSYAMGWYRQAPGKETELVAAIRGSGVSTYYADSVKGRFTISRDNAKNTVYLQMNSLNPEDTAVYYCAARSYIRVWKKGAVQRSVYYWGQGTQVTVSS”, the “polyreactivity (PSR sort gate)” value is “high polyreactivity”.

“QVQLVESGGGLVQAGGSLRLSCAASGRTLGVNAMGWYRQAPGKERELVAAISTRGTTTNYADSVKGRFTISRDNAKNTVYLQMNSLKPEDTAVYYCAVRSRTPRAYYYWGQGTQVTVSS”: the “polyreactivity (PSR sort gate)” value was “low polyreactivity”.

Regarding “QVQLVESGGGLVQAGGSLRLSCAASGRTLGVYTMGWYRQAPGKERELVATISWDGGITYYADSVKGRFTISRDNAKNTVYLQMNSLKPEDNAVYYCAAVDHSYGWMDYWGQGTQVTVSS”, the “polyreactivity (PSR sort gate)” value is listed as “low polyreactivity”.

“QVQLVESGGGLVQAGGSLRLSCAASGRTLGYYAMGWYRQAPGKERELVAAISRSGGSTYYADSVKGRFTISRDHAKNTVYLQMNSLKPEDTAVYYCAATYGPSRYRYDYWGQGTQVTVSS”: the “polyreactivity (PSR sort gate)” value is on record as “high polyreactivity”.

Take “QVQLVESGGGLVQAGGSLRLSCAASGRTLIWYTMGWYRQAPGKERELVAAITSGGSTYYADSVKGRFTISRDNAKNTVYLRMNSLKPEDTAVYYCAAVYPAAPRAYGYWGQGTQVTVSS”: the “polyreactivity (PSR sort gate)” value was “low polyreactivity”.

In the case of “QVQLVESGGGLVQAGGSLRLSCAASGRTLKKNAMGWYRQAPGKEMELVAAITSSTGITYYADSVKGRFTISRDNAKNTVYLQMNSLKPEDTAVYYCAADPPRTLSLIFYSREWSYDYWGQGTQVTVSS”, the “polyreactivity (PSR sort gate)” value was “low polyreactivity”.

In the case of “QVQLVESGGGLVQAGGSLRLSCAASGRTLKVYAMGWYRQAPGKERELVAAINNGGSTNYADSVKGRFTISRDNAKNTVYLQMNSLKPEDTAVYYCNAVYYARYRKYTYYYWGQGTQVTVSS”, the “polyreactivity (PSR sort gate)” value is listed as “high polyreactivity”.

For the sequence “QVQLVESGGGLVQAGGSLRLSCAASGRTLLKNAMGWYRQAPGKEREFVAAITYSSGSTYYADSVKGRFTISRDNAKNTVYLQMNSLKPEDTAVYYCAKTNFSQSSRYNYDYWGQGTQVTVSS”, the “polyreactivity (PSR sort gate)” value is “low polyreactivity”.

Take “QVQLVESGGGLVQAGGSLRLSCAASGRTLNYNVLGWYRQAPGKERELVASITSRGGSTRYADSVKGRFTISRDHAKNTVYLQMNSLKPEDTAGYYCAARYTTARSSYDYWGQGTQVTVSS”: the “polyreactivity (PSR sort gate)” value is reported as “high polyreactivity”.

“QVQLVESGGGLVQAGGSLRLSCAASGRTLRGNAMGWYRQAPGKEREFVAAITRRGGSTYYADSVKGRFTISRDNAKNTVYLQMNSLKPEDTAVYYCAAEGYDWIYLYYGLGYWGQGTQVTVSS”: the “polyreactivity (PSR sort gate)” value was “low polyreactivity”.

For the sequence “QVQLVESGGGLVQAGGSLRLSCAASGRTLRGYAMGWYRKAPGKEREFVAAISSRGGSTYYADSVKGRFTISRDNAKNTVYLQMNSLKPEDTAVYYCAALRPVFATSHARDYWGQGTQVTVSS”, the “polyreactivity (PSR sort gate)” value is on record as “high polyreactivity”.

For the sequence “QVQLVESGGGLVQAGGSLRLSCAASGRTLRHYAMGWYRQAPGKERELVAAISSTGSSTYYADSVKGRFTISRDNAKITVYLQMNSLKPEDTAVYYCAADKYTWDAGGVVYWGQGTQVTVSS”, the “polyreactivity (PSR sort gate)” value was “low polyreactivity”.

Take “QVQLVESGGGLVQAGGSLRLSCAASGRTLRHYTMGWYRQAPGKERELVAAITSRGSSTYYAESVKGRFTISRDNAKNTVYLQMNSLTPEDTAVYYCNATYVRLTQYFPRLYYPYYFWGQGTQVTVSS”: the “polyreactivity (PSR sort gate)” value was “low polyreactivity”.

“QVQLVESGGGLVQAGGSLRLSCAASGRTLRIYAMGWYRQAPGKERELVAAITSSGRTNYADSVKGRFTISRDNAKNTVYLQMNSLKPEDTAVYYCSADYYYYVAGVHYDYWGQGTQVTVSS”: the “polyreactivity (PSR sort gate)” value is “low polyreactivity”.

These data come from the nanobody polyreactivity screen of Harvey et al. (2022).
